# Source: patent US5686592, “High-affinity oligonucleotide ligands to immunoglobulin E (IgE)” (NeXstar Pharmaceuticals, Inc.)
# B1: D31.0 (ssDNA)
# DNA: CTACCTACGATCTGACTAGCACGGGTGAGTTGATCCGTCACTCTTAGTGGTGAACCTTGTGCTTACTCTCATGTAGTTCC
# B2: D11.0 (ssDNA)
# DNA: CTACCTACGATCTGACTAGCACCGGAGTACTTCATCCGTCCCTTCTAGTGGGTACCCGTAGCTTACTCTCATGTAGTTCC
# B3: D2.0 (ssDNA)
# DNA: CTACCTACGATCTGACTAGCGGCCGGAGCTTTATCCGTTACTCTCAGTGGGTGACTGTCGCTTACTCTCATGTAGTTCC
# Experiments:
# Conditions in all cases: tags: Athens Research Technology; chain copies: 2; label: 5' 32P
# human IgE [1] = molecular target: T1, human IgE (Homo sapiens, UniProt P01854-1 P01854-1:1-428); assay: filter; modified PBS, 1 mM Mg2+, 37 C; D31.0 taken as clone D031
# T1 sequence (P01854 other isoform, or with tags, fused parts or gaps): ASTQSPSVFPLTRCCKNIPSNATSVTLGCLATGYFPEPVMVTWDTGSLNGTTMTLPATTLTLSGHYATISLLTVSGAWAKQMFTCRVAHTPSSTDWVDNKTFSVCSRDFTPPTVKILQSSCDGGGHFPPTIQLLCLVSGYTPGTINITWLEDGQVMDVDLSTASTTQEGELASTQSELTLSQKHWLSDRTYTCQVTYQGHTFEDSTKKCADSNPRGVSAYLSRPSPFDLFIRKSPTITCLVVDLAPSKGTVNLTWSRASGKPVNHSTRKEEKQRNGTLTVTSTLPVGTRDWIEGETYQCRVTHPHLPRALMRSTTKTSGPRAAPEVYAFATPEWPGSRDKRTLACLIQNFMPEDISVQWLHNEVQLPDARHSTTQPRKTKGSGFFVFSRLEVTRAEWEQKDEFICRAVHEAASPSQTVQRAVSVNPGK
# human IgE [2] = molecular target: T1, human IgE; assay: filter; modified PBS, 1 mM Mg2+, 37 C; D11.0 taken as clone D011
# human IgE [3] = molecular target: T1, human IgE; assay: filter; modified PBS, 1 mM Mg2+, 37 C; D2.0 taken as clone D002
# Procedure: Affinities of representative DNA ligands for human IgE were determined by nitrocellulose filter binding experiments and the K_Ds are listed in Table 7. […] Individual clones tested from this pool have affinities in the same range. The affinities were not expected to vary widely since the enriched DNA pool is very homogenous. Ligand D17.0 was picked for truncation experiments. […] However, the affinity could be restored to the level of the full-length ligand by the addition of a 4 basepair stem resulting in the 37 base truncate D17.4. It is possible that the stem in D17.1 is not stable enough to prevent the formation of an alternative secondary structure and that the additional base pair in D17.4 lock in the conformation necessary for IgE binding.
binder,measurement,setting,value
B1,Kd,human IgE [1],22 nM
B2,Kd,human IgE [2],8 nM
B3,Kd,human IgE [3],6 nM
